From the RNAGym collection of RNA variant scans (doi:10.7554/elife.90254)

B1: LINE1-full (parent)
chain: UACGUAGGUGGUUUUCCCCUGAUAGUGCUAAGGGGGCCUGGAAGUUUGGACUGGGCAGAGCUCAACACAGCGUGGCAAAGUGGCUGUGGCUAGACUGCCUCUCUGGAUUCCUCGUCACUCAGCAGGGCAUCUCUGAGAGAAAUGCC

Variants of: B1
Test: self-cleavage, relative activity (ratio to wild type); higher = more cleavage; in vitro, sequencing; the parent is a self-cleaving ribozyme

Point of comparison: U15G U29C, self-cleavage 1.05. Against it:
- U46G G114A — higher, 1.18
- C18U A77U — higher, 1.11
- U13C A94U — lower, 0.42
- A64G G144A — lower, 0.21
- G35U A140U — higher, 1.19
- U29G A64G — lower, 0.6
- U85C U143A — lower, 0.19
- U96C G144A — lower, 0.25
- A117C A138G — higher, 2.04
- A77C U85A — lower, 0.18
- G70U U112A — lower, 0.05
- G48U U102C — higher, 1.43
- U9C U132C — higher, 1.47
- U9G U47C — lower, 0.54
- U87C A136G — lower, 0.24
- A67U G106A — lower, 0.15
- A77G A79G — lower, 0.95
- C118U U130C — lower, 0.97
- A64U U143C — lower, 0.42
- G58A C145U — lower, 0.04
- A78C A117G — higher, 2.21
- A22U A138C — lower, 0.92
- A22U A138G — higher, 1.09
- A31C A138G — higher, 1.31
- U14C A77U — higher, 1.19
- A30G A121G — lower, 0.52
- A2U U100C — lower, 0.95
- U13A A124U — lower, 0.98
- U23G G122U — higher, 1.17
- C28U A141G — higher, 1.53
- A2G G34C — lower, 0.75
- U52A C123U — higher, 1.11
- U29A G41A — higher, 1.7
- A43G U102A — lower, 0.91
- U29A U108C — higher, 2.61
- U14C G40U — higher, 1.06
- A2G A64U — lower, 0.88
- U115C G144C — higher, 2.13
- U104A — higher, 1.14
- U130C A142U — higher, 1.6
- U5G A64G — lower, 0.23
- C56U A142G — lower, 0.11
- U102C U109A — higher, 1.31
- A30U U143C — lower, 0.77
- U29G C99A — lower, 0.42
- U23C A136G — higher, 1.27
- G32A A136U — lower, 0.45
- A64G A117G — lower, 0.21
- G82U A129G — higher, 1.54
- U102C A138G — higher, 1.42
- U112C G122C — higher, 1.18
- A42G U143A — higher, 1.85
- C113U U132C — lower, 0.89
- G33C U91C — lower, 0.41
- U62C U143A — lower, 0.06
- U102C U143G — higher, 1.59
- A79C U85C — lower, 0.58
- C19U C84U — lower, 0.22
- A2G G36U — lower, 0.67
- G97A G126A — lower, 0.09
- A64G G127A — lower, 0.18
- C118U A129G — higher, 1.81
- G34U U132C — higher, 1.51
- A117G U119C — higher, 1.47
- G10A A67G — lower, 0.42
- A6G A31U — lower, 1.01
- U13A U102C — lower, 0.84
- U9C U47C — higher, 1.45
- C63U A79G — lower, 0.58
- U112C A129G — higher, 1.42
- G88U U100C — lower, 0.04
- G4A A124U — lower, 0.53
- G88A A136G — lower, 0.07
- U73C G126U — higher, 1.85
- A24U A92U — lower, 0.7
- U9A C110U — higher, 1.06
- A78U U102C — higher, 1.12
- C51U A142G — higher, 1.7
- A107G A136G — higher, 1.31
- A94C U96C — lower, 0.18
- A42C G53A — higher, 1.22
- A129G C145U — lower, 0.99
